The assay concerns the target RANKL of the osteoclast differentiation medium (UniProt O35235).
UniProt O35235, sequence (O35235 whole entry): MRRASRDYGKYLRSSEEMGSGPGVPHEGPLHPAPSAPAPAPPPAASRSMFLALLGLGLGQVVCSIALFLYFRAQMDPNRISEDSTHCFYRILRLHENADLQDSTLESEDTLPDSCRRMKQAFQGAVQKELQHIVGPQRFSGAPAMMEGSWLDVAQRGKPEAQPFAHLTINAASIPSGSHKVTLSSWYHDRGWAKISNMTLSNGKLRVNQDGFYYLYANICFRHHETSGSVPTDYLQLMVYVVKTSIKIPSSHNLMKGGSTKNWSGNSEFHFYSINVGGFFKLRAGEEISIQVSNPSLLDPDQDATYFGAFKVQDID

B1: recombinant mouse OMD (natural protein)
chain: QYEAYRWDDDYDQEPNEDYDPEFQFHQNIEYGVPFYNNILGCAKECFCPTNFPTSMYCDNRKLKTIPIIPMHIQQLNLQFNDIEAVTANSFINATHLKEINLSHNKIKSQKIDYGVFAKLSNLQQLHLEHNNLEEFPFPLPKSLERLLLGYNEISILPTNAMDGLVNVTMLDLCYNHLSDSMLKEKTLSKMEKLMQLNLCNNRLESMPLGLPSSLMYLSLENNSISSIPDNYFDKLPKLHALRISHNKLEDIPYDIFNLSNLIELNVGHNKLKQAFYIPRNLEHLYLQNNEIESINVTMICPSPDPVHHHHLTYLRVDQNKLKEPISSYIFFCFPRIHSIYYGEQRSTNGETIQLKTQVFRSYQEEEEEDDHDSQDNTLEGQEVSDEHYNSHYYEMQEWQDTI
Molecule B1 displayed an osteoclast number (TRAP staining after 4 days) in primary murine osteoclast culture differentiated with M-CSF and RANKL; OMD at 10 and 40 ng/mL preincubated with RANKL and M-CSF (% reduction of osteoclast number) of 50.

The record behind these values is article PMC10511717.
